Ends that are not written are not given here.
Biological target: T1, insulin-like growth factor I (IGF-I) (human, UniProt P05019 49-118, 125I-labelled in the ligand blots, affinity cross-linking and solution binding assay; unlabelled in BIAcore)
T1 construct: Human is stated only for the BIAcore material (rhIGF-I); also called rhIGF-I
Assay: dot ligand blot: E. coli GST-fusion lysate dotted on nitrocellulose, probed with 125I-IGF-I; anti-GST dot immunoblot as loading control
Description: For dot blots, 2.5 μl of sample were dotted directly onto the nitrocellulose membrane. The membranes were then blocked for 1 h at 21° C. in 4% milk/TBS-T, followed by an overnight incubation at 4° C. with anti-IGFBP-3 monoclonal antibody (Diagnostic Systems Laboratories, Inc., Webster, Tex.), anti-GST polyclonal antibody (Amersham Pharmacia Biotech, Piscataway, N.J.), anti-PY20 monoclonal antibody (Santa Cruz Biotech, Santa Cruz, Calif.), or anti-IRS-1 polyclonal antibody (Upstate, Lake Placid, N.Y.), all at 1:3000 dilutions. Membranes were washed with TBS-T and incubated for 1 h at 21° C. with a 1:3000 dilution of horseradish peroxidase-linked antirabbit or antimouse IgG secondary antibodies (Amersham Pharmacia Biotech, Piscataway, N.J.). Proteins were detected by enhanced chemiluminescence reagents, according to the manufacturer's protocol (NEN Life Science Products, Boston, Mass.).
Lane 1, ⁽¹⁻⁴⁶⁾IGFBP-3; lane 2, ⁽¹⁻⁷⁵⁾IGFBP-3; lane 3, ⁽¹⁻⁸⁰⁾IGFBP-3; lane 4, ⁽¹⁻⁸⁷⁾IGFBP-3; lane 5, full-length IGFBP-3; lane 6, pGEX4T-1 vector alone. The binding of these IGFBP-3 “deletion” fragments to [¹²⁵I]-IGF-I is shown, along with wild-type IGFBP-3 binding, and control vector (pGEX4T-1) to [¹²⁵I]-IGF-I. For each protein sample, the protein extract was directly pipetted onto nitrocellulose paper, incubated in 1% BSA with [¹²⁵I]-IGF-I, and then exposed to film. […]

T1 sequence (P05019 49-118 limits assumed): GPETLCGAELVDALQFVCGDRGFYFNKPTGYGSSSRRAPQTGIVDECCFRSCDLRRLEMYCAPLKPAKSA

B1: (1-46)IGFBP-3 FLAG-tagged fragment, GST-fusion (E. coli) (other, human)
chain: GASSAGLGPVVRCEPCDARALAQCAPPPAVCAELVREPGCGCCLTCDYKDDDDK
modifications: cysteine pairing not given here; also: GST fusion with the vector's linker, linker sequence and fusion end not given here
notes: range 1-46; Tested as crude E. coli cell lysate; not shown: glutathione S-transferase encoded by vector pGEX4T-1, with the vector's linker
B1: no binding.
